T1: mouse VEGF165 (Mus musculus, UniProt Q00731)
T1 sequence (Q00731 27-190 isoform Q00731-2): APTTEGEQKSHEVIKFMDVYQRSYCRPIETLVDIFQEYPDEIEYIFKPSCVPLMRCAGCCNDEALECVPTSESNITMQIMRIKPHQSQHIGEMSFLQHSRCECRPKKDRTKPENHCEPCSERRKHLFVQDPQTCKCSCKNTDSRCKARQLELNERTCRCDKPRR

B1: 219R45-MB-21R79: anti-VEGF/anti-DLL4 monovalent/bispecific antibody, heavy chains SEQ ID NO:7 and 6, light chains SEQ ID NO:8 (antibody)
heavy 1: QVQLVQSGAEVKKPGASVKVSCKASGYTFTNYWMHWVRQAPGQGLEWMGDINPSNGRTSYKEKFKRRVTLSVDKSSSTAYMELSSLRSEDTAVYFCTIHYDDKYYPLMDYWGQGTLVTVSSASTKGPSVFPLAPCSRSTSESTAALGCLVKDYFPEPVTVSWNSGALTSGVHTFPAVLQSSGLYSLSSVVTVPSSNFGTQTYTCNVDHKPSNTKVDKTVERKCCVECPPCPAPPVAGPSVFLFPPKPKDTLMISRTPEVTCVVVDVSHEDPEVQFNWYVDGVEVHNAKTKPREEQFNSTFRVVSVLTVVHQDWLNGKEYKCKVSNKGLPAPIEKTISKTKGQPREPQVYTLPPSREKMTKNQVSLTCLVKGFYPSDIAVEWESNGQPENNYKTTPPMLKSDGSFFLYSKLTVDKSRWQQGNVFSCSVMHEALHNHYTQKSLSLSPGK
heavy 2: QVQLVQSGAEVKKPGASVKISCKASGYSFTAYYIHWVKQAPGQGLEWIGYIANYNRATNYNQKFKGRVTFTTDTSTSTAYMELRSLRSDDTAVYYCARDYDYDVGMDYWGQGTLVTVSSASTKGPSVFPLAPCSRSTSESTAALGCLVKDYFPEPVTVSWNSGALTSGVHTFPAVLQSSGLYSLSSVVTVPSSNFGTQTYTCNVDHKPSNTKVDKTVERKCCVECPPCPAPPVAGPSVFLFPPKPKDTLMISRTPEVTCVVVDVSHEDPEVQFNWYVDGVEVHNAKTKPREEQFNSTFRVVSVLTVVHQDWLNGKEYKCKVSNKGLPAPIEKTISKTKGQPREPQVYTLPPSREEMTKNQVSLTCLVEGFYPSDIAVEWESNGQPENNYKTTPPMLDSDGSFFLYSELTVDKSRWQQGNVFSCSVMHEALHNHYTQKSLSLSPGK
light: DIVMTQSPDSLAVSLGERATISCRASESVDNYGISFMKWFQQKPGQPPKLLIYAASNQGSGVPDRFSGSGSGTDFTLTISSLQAEDVAVYYCQQSKEVPWTFGGGTKVEIKRTVAAPSVIFPPSDEQLKSGTASVVCLLNNFYPREAKVQWKVDNALQSGNSQESVTEQDSKDSTYSLSSTLTLSKADYEKHKVYACEVTHQGLSSPVTKSFNRGEC
modifications: 21R79 Heavy chain without predicted signal sequence; Light chain without predicted signal sequence
B2: 21M18: anti-DLL4 antibody, parental antibody (Hoey et al., 2009; U.S. Pat. No. 7,750,124) (antibody, V domains shown)
VH: QVQLVQSGAEVKKPGASVKISCKASGYSFTAYYIHWVKQAPGQGLEWIGYISSYNGATNYNQKFKGRVTFTTDTSTSTAYMELRSLRSDDTAVYYCARDYDYDVGMDYWGQGTLVTVSS
VL: DIVMTQSPDSLAVSLGERATISCRASESVDNYGISFMKWFQQKPGQPPKLLIYAASNQGSGVPDRFSGSGSGTDFTLTISSLQAEDVAVYYCQQSKEVPWTFGGGTKVEIK

How the values were obtained:
[1] = target: T1, mouse VEGF165; assay: Biacore binding affinity (KD) to mouse VEGF
Protocol: (§1) The KDs of parental antibodies anti-VEGF 219R45 (IgG format), anti-DLL4 21R79 (IgG format), anti-DLL4 21M18 (IgG format) and bispecific antibodies 219R45-MB-21M18 and 219R45-MB-21R79 were determined using a Biacore 2000 system from Biacore LifeSciences (GE Healthcare). Recombinant human DLL4-Fc or mouse DLL4-Fc proteins were immobilized on CM5 carboxyl chips using standard amine-based chemistry (NHS/EDC) and blocked with ethanolamine. Recombinant human VEGF165 or mouse VEGF165 were biotinylated and immobilized on streptavidin chips. The antibodies were serially diluted 2-fold from 100 nM to 0.78 nM in HBS-P (0.01M HEPES pH7.4, 0.15M NaCl, 0.005% v/v Polysorbate 20). For each antibody, all 8 dilutions were sequentially injected over a specific chip. Kinetic data were collected over time and were fit using the simultaneous global fit equation to yield affinity constants (KD values) for each bispecific antibody.

[2] = target: mouse DLL4-Fc; assay: Biacore binding affinity (KD) to mouse DLL4; conditions: Biacore 2000, mouse DLL4-Fc on CM5 chip; read-out: KD mDLL4
Protocol: as §1

[3] = system: DLL4-induced Notch signaling; assay: DLL4-induced Notch signaling luciferase reporter assay in Notch2-expressing PC3 cells; assay type: cell-based; conditions: coated human DLL4 100 ng/well, antibody 20 to 0.064 ug/ml
Protocol: FIG. 4. Inhibition of DLL4-induced Notch signaling by anti-VEGF/anti-DLL4 bispecific antibodies. Luciferase activity was measured using a dual luciferase assay kit with firefly luciferase activity normalized to Renilla luciferase activity. 219R45-MB-21M18 (-●-); 219R45-MB-21R79 (-▪-); 21M18 (-∘-); 21R79 (-□-).
Human PC3 cells were transfected with an expression vector encoding a full-length human Notch2 receptor and a firefly luciferase reporter vector (8× CBF-luciferase reporter) that is responsive to Notch signaling. The cells were also transfected with a Renilla luciferase reporter (Promega, Madison, Wis.) as an internal control for transfection efficiency. Purified human DLL4 protein was coated onto 96-well plates at 100 ng/well and Notch2-expressing PC3-luc cells were added to the wells. Anti-VEGF/anti-DLL4 bispecific antibodies 219R45-MB-21M18, 219R45-MB-21R79, parental anti-DLL4 antibodies 21M18, 21R79 or a control antibody LZ1 were serially diluted 5-fold from 20 ug/ml to 0.064 ug/ml, added to the appropriate wells, and incubated overnight. Luciferase activity was determined using a dual luciferase assay kit (Promega, Madison, Wis.) with firefly luciferase activity normalized to Renilla luciferase activity.

[4] = system: OMP-PN8 pancreatic tumor cells; assay: Tumorigenicity of OMP-PN8 pancreatic tumor cells after treatment (serial transplantation); assay type: in vivo, NOD/SCID mice; conditions: 90 cells from treated tumors transplanted, day 55, no treatment; 21M18, bevacizumab 15 mg/kg, bispecifics 30 mg/kg, gemcitabine 70 mg/kg, four weeks
Protocol: FIG. 6. Tumorigenicity of pancreatic tumor cells after treatment with anti-VEGF/anti-DLL4 bispecific antibodies. OMP-PN8 tumor cells from mice treated with control antibody, anti-hDLL4 antibody 21M18, anti-VEGF antibody bevacizumab, or anti-VEGF/anti-DLL4 bispecific antibodies 219R45-MB-21M18 or 219R45-MB-21R79 with or without gemcitabine were processed to single cell suspensions, and serially transplanted into mice. 90 cells from each treatment group were injected subcutaneously into NOD/SCID mice. Tumors were allowed to grow with no treatment. Data is shown as tumor volume (mm^3) on day 55. Tumor frequency is shown as number of tumors over total number of mice injected in each group.
Mice bearing OMP-PN8 pancreatic tumors were treated with control antibody (15 mg/kg), anti-hDLL4 antibody 21M18 (15 mg/kg), anti-VEGF antibody bevacizumab (15 mg/kg), or anti-VEGF/anti-DLL4 bispecific antibodies 219R45-MB-21M18 or 219R45-MB-21R79 (30 mg/kg) with or without gemcitabine (70 mg/kg). Following four weeks of treatment, tumors were harvested, processed to single cell suspensions and the human tumor cells were purified by immunomagnetic depletion of murine cells. 90 human tumor cells from each treatment group were transferred to a new cohort of mice (n=10 mice/group). Tumors were allowed to grow for 55 days without any treatment and tumor volumes were measured with electronic calipers.

[5] = system: OMP-C8 colon tumor; assay: Tumorigenicity of OMP-C8 colon tumors after treatment (serial transplantation); assay type: in vivo, NOD/SCID mice; conditions: 150 cells from treated tumors transplanted, day 68; without irinotecan combination
Protocol: FIG. 10. Tumorigenicity of […] colon tumor cells after treatment with anti-VEGF/anti-DLL4 bispecific antibodies. Tumors from mice treated with control antibody, anti-hDLL4 antibody 21M18, anti-VEGF antibody bevacizumab, a combination of 21M18 and bevacizumab, or anti-VEGF/anti-DLL4 bispecific antibodies 219R45-MB-21M18 or 219R45-MB-21R79 with or without irinotecan were processed to single cell suspensions, and serially transplanted into mice. 150 cells from each treatment group were injected subcutaneously into NOD/SCID mice. Tumors were allowed to grow with no treatment. Data are shown as tumor volume (mm^3) on day 68.
Single cell suspensions of OMP-C8 colon tumor xenografts (20,000 cells) were injected subcutaneously into the flanks of 6-8 week old NOD/SCID mice. Tumors were allowed to grow for 33 days until they reached an average volume of 300 mm^3. The mice were randomized (n=5 per group) and treated with anti-DLL4 antibody 21M18, anti-VEGF antibody bevacizumab, a combination of antibodies 21M18 and bevacizumab, anti-VEGF/anti-DLL4 bispecific antibody 219R45-MB-21M18, anti-VEGF/anti-DLL4 bispecific antibody 219R45-MB-21R79, or control antibody, either in combination with irinotecan or without irinotecan. Antibodies and irinotecan were dosed weekly by injection into the intraperitoneal cavity. Antibodies 21M18 and bevacizumab were dosed at 7.5 mg/kg, bispecific antibodies 219R45-MB-21M18 and 219R45-MB-21R79 were dosed at 15 mg/kg, and irinotecan was dosed at 45 mg/kg. Tumors were harvested after 4 weeks, processed into single cell suspensions, and the human tumor cells were isolated. 150 tumor cells from each experimental group were injected subcutaneously into a new cohort of mice (n=10 per group) and tumors were allowed to grow without treatment. Tumor growth was monitored and tumor volumes were measured with electronic calipers.

Chain of mouse DLL4-Fc (Q9JI71 27-519 limits assumed): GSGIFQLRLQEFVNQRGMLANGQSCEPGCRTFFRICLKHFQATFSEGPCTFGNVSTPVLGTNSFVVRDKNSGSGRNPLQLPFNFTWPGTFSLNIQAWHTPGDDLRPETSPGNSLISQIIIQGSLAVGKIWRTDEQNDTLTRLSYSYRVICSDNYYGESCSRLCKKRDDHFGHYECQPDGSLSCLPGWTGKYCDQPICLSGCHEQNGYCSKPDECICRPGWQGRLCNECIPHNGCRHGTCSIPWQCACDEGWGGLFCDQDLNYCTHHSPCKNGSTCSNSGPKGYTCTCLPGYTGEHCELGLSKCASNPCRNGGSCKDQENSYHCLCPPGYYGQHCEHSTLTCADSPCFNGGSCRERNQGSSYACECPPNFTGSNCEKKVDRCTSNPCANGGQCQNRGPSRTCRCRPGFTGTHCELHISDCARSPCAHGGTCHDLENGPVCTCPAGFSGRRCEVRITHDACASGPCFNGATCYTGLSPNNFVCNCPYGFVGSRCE

Molecule | binding to mouse VEGF (in words) [1] | Kd [2] | inhibition of DLL4-induced Notch signaling [3] | tumor growth frequency (mice with tumors) [4] | tumor growth frequency, single agents [5] | Kd ([1]; Biacore 2000, biotinylated mouse VEGF165 on streptavidin chip, read-out: KD mVEGF)
B1 | bind mouse VEGF | > 100 nM | inhibited DLL4-induced Notch signaling | 4 out of 10 | reduced tumor growth frequency | 
B2 |  | > 100 nM | inhibited DLL4-induced Notch signaling | 5 out of 10 | reduced tumor growth frequency | > 100 nM

Reference: patent publication US11512128B2, “VEGF/DLL4 binding agents and uses thereof” (MEREO BIOPHARMA 5, INC., priority 2011, dated 2022)
